This data set concerns the target TtCsm complex (Thermus thermophilus) (UniProt Q53W19+Q53WF6+Q53WF5+Q53WF4+Q53W18). The data set is described as follows: cleavage_in_vitro.

As to “crRNA targeting SARS-CoV-2 N gene (N1) ; SARS-CoV-2 N1 target RNA”, the activity is over 95 % cleaved.

(Values after US20240182988.)
